In patent publication US20040048305:

Assays:
[1] = molecular target: T1, bovine myelin basic protein (biotinylated MBP, Amersham Biosciences), P02687
T1 chain: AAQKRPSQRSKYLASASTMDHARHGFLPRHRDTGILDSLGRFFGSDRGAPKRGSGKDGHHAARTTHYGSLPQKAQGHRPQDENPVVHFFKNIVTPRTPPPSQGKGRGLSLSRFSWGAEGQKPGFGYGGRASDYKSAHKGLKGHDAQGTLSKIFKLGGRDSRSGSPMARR

[2] = molecular target: T2, peptide 3: Biotin-KKRFSFKKSFKLSGFSFK-COOH
T2 chain: KKRFSFKKSFKLSGFSFK

B1: GST-14171 fusion protein (glutathione S-transferase fused to the N-terminus of a partial 14171 molecule, amino acid residues 1-350 of SEQ ID NO:2) (protein)
chain: MEGDGGTPWALALLRTFDAGEFTGWEKVGSGGFGQVYKVRHVHWKTWLAIKCSPSLHVDDRERMELLEEAKKMEMAKFRYILPVYGICREPVGLVMEYMETGSLEKLLASEPLPWDLRFRIIHETAVGMNFLHCMAPPLLHLDLKPANILLDAHYHVKISDFGLAKCNGLSHSHDLSMDGLFGTIAYLPPERIREKSRLFDTKHDVYSFAIVIWGVLTQKKPFADEKNILHIMVKVVKGHRPELPPVCRARPRACSHLIRLMQRCWQGDPRVRPTFQEITSETEDLCEKPDDEVKETAHDLDVKSPPEPRSEVVPARLKRASAPTFDNDYSLSELLSQLDSGVSQAVEGP
counts per minute at the two hour timepoint, 10 nM enzyme, 0.5 uM substrate [1]: about 21,000 cpm
phosphorylation of biotinylated MBP by soluble GST-14171 fusion protein [1]: phosphorylated MBP
signal-to-noise ratio at the two hour timepoint, 10 nM enzyme [1]: a signal-to-noise ratio of 13
substrate phosphorylation, [gamma-33P]ATP, streptavidin SPA beads [1]: strong phosphorylation of bovine myelin basic protein
counts per minute at the two hour timepoint, 10 nM enzyme, 0.5 uM substrate [2]: about 11,000 cpm
signal-to-noise ratio at the two hour timepoint, 10 nM enzyme [2]: a signal-to-noise ratio of 9
substrate phosphorylation, [gamma-33P]ATP, streptavidin SPA beads [2]: weak phosphorylation of the following peptide, named peptide 3
